Reference: PMC12281484, “Targeted O‑GlcNAcylation of CK2α Triggers Its Ubiquitin-Proteasome Degradation and Alters Downstream Phosphorylation” (ACS Chemical Biology, 2025)

Biological target: T1, HTN-CK2α^WT with O-GlcNAcylation at Ser347 induced by OGTAC-1 (cells co-expressing fOGT) (UniProt P68400 1-391, O-GlcNAc at Ser347 (level increased by about 2-fold with 100 nM OGTAC-1 at 8 h))
T1 construct: casein kinase II subunit α (CK2α); Same construct as m1; only a part of the copies is modified (the level is raised over the baseline, not complete); also called HTN-CK2α (OGTAC-1 treated); CK2α with higher O-GlcNAcylation level; source: transfected cells co-expressing fOGT, treated with OGTAC-1 for 8 h, in lysate; not shown: HaloTag, N-terminal, kept
T1 sequence (P68400 whole entry): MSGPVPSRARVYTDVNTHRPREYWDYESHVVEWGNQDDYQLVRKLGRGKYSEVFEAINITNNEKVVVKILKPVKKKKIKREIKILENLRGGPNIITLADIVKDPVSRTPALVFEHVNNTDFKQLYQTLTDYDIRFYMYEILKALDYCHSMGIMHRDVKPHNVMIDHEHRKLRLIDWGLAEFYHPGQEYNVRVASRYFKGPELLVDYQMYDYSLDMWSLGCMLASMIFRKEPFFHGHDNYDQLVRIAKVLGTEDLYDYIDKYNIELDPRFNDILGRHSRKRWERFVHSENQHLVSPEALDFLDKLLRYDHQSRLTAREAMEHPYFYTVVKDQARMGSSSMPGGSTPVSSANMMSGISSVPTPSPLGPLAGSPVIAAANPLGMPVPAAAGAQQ
Assay: co-IP; Flag-CRBN, HTN-CK2α (WT or S347A) and fOGT (WT or K852A) overexpressed in cells; DMSO or 100 nM OGTAC-1 for 8 h; HaloTrap IP; anti-FlagTag and anti-HA-Tag blots
Details: partners not purified

B1: Flag-CRBN (cereblon) (natural protein, UniProt Q96SW2 1-442, looked up)
chain: MAGEGDQQDAAHNMGNHLPLLPAESEEEDEMEVEDQDSKEAKKPNIINFDTSLPTSHTYLGADMEEFHGRTLHDDDSCQVIPVLPQVMMILIPGQTLPLQLFHPQEVSMVRNLIQKDRTFAVLAYSNVQEREAQFGTTAEIYAYREEQDFGIEIVKVKAIGRQRFKVLELRTQSDGIQQAKVQILPECVLPSTMSAVQLESLNKCQIFPSKPVSREDQCSYKWWQKYQKRKFHCANLTSWPRWLYSLYDAETLMDRIKKQLREWDENLKDDSLPSNPIDFSYRVAACLPIDDVLRIQLLKIGSAIQRLRCELDIMNKCTSLCCKQCQETEITTKNEIFSLSLCGPMAAYVNPHGYVHETLTVYKACNLNLIGRPSTEHSWFPGYAWTVAQCKICASHIGWKFTATKKDMSPQKFWGLTRSALLPTIPDTEDEISPDKVILCL
notes: cereblon (CRBN), plasmid bought from Addgene; source: co-IP methods: HeLa or HEK293T
  fold change of co-IPed CRBN over the DMSO treatment: ~2 fold
